T1: Esrrb (Mus musculus, UniProt Q61539 1-433)
T1 sequence: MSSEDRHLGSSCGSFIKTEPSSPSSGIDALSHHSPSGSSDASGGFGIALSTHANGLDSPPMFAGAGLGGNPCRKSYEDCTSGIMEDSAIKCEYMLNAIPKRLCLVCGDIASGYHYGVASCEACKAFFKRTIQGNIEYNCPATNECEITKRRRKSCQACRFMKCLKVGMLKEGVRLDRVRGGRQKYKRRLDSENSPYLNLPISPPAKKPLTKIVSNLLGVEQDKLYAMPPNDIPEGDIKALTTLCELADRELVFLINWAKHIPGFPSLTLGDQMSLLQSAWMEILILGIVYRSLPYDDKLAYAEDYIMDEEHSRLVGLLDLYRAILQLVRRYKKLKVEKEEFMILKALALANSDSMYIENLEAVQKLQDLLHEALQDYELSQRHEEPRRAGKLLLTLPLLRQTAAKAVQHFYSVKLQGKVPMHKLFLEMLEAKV

B1: Nr5a2 motif DNA (dsDNA)
DNA 1: GAGAGAGTCAAGGCCATGGCTCACT
DNA 2: AGTGAGCCATGGCCTTGACTCTCTC
B2: Esrrb motif DNA (dsDNA)
DNA 1: GAGAGAGTCAAGGTCATGGCTCACT
DNA 2: AGTGAGCCATGACCTTGACTCTCTC

Columns and labels:
Esrrb = molecular target: T1, Esrrb; experiment: fluorescence polarization
Nr5a2 = Nr5a2 (Mus musculus, UniProt P45448 1-560); experiment: fluorescence polarization
Nr5a2, sequence (P45448 whole entry): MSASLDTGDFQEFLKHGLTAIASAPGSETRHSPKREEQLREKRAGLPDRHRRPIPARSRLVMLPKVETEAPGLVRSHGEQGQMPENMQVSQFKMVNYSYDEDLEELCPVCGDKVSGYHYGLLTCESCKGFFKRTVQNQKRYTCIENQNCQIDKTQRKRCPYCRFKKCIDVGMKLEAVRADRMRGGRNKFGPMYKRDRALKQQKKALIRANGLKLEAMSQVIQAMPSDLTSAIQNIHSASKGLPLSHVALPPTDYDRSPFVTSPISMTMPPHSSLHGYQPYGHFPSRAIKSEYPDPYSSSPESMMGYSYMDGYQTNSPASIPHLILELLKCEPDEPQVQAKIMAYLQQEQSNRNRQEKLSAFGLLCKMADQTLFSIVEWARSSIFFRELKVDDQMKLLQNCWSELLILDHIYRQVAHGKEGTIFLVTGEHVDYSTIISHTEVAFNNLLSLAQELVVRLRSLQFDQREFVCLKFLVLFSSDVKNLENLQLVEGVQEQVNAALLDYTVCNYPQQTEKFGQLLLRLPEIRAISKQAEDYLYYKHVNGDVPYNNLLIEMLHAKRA

Row | Binder | Kd (Esrrb) | Kd (Nr5a2)
1 | B1 | 626 ± 133 nM | 5.62 ± 1 nM
2 | B2 | 8.56 ± 0.69 nM | 6.49 ± 0.35 nM

Source: publication doi:10.1101/2022.05.17.492379
